{"source": "ChEMBL document CHEMBL1212722", "about": "“Designer enzymes for glycosphingolipid synthesis by directed evolution” (Nat Chem Biol, 2009)", "molecules": {"B1": {"name": "Endoglycoceramidase II (Rhodococcus sp), A0ACD6B832 T257I,T416A (protein)", "chain": "MRRTRLVSLIVTGSLVFGGGVAAAQSSLAASGSGSGSGTALTPSYLKDDDGRSLILRGFNTASSAKSAPDGMPQFTEADLAREYADMGTNFVRFLISWRSVEPAPGVYDQQYLDRVEDRVGWYAERGYKVMLDMHQDVYSGAITPEGNSGNGAGAIGNGAPAWATYMDGLPVEPQPRWELYYIQPGVMRAFDNFWNTTGKHPELVEHYAKAWRAVADRFADNDAVVAYDLMNEPFGGSLQGPAFEAGPLAAMYQRTIDAIRQVDQDTWVCVAPQAIGVNQGLPSGLTKIDDPRAGQQRIAYCPHLYPLPLDIGDGHEGLARTLTDVTIDAWRANTAHTARVLGDVPIILGEFGLDTTLPGARDYIERVYGTAREMGAGVSYWSSDPGPWGPYLPDGTQTLLVDTLNKPYPRAVAGAPTEWSSTSDRLQLTIEPDAAITAPTEIYLPEAGFPGDVHVEGADVVGWDRQSRLLTVRTPADSGNVTVTVTPAA"}, "B2": {"name": "Endoglycoceramidase II (Rhodococcus sp), A0ACD6B832 A153T,D314Y,R177H (protein)", "chain": "B1 chain with A153T, R177H, I257T, D314Y, A416T"}, "B3": {"name": "Endoglycoceramidase II (Rhodococcus sp), A0ACD6B832 G370E (protein)", "chain": "B1 chain with I257T, G370E, A416T"}, "B4": {"name": "Endoglycoceramidase II (Rhodococcus sp), A0ACD6B832 D314Y (protein)", "chain": "B1 chain with I257T, D314Y, A416T"}}, "key": {"[1]": {"experiment": "Inhibition of Rhodococcus sp. M777 Endoglycoceramidase 2 containing wild type sequence E351S"}, "[2]": {"substrate": "CC(=O)N[C@H]1[C@H](O[C@@H]2[C@H](O[C@]3(C(=O)O)C[C@H](O)[C@@H](NC(C)=O)[C@H]([C@@H](O)[C@@H](O)CO)O3)[C@@H](O)[C@H](O[C@H]3[C@H](O)[C@@H](O)[C@@H](F)O[C@@H]3CO)O[C@@H]2CO)O[C@H](CO)[C@H](O)[C@@H]1O[C@@H]1O[C@H](CO)[C@H](O)[C@H](O)[C@H]1O", "experiment": "(§1) Activity of Rhodococcus sp. M777 Endoglycoceramidase 2 T257I T416A mutant"}, "[3]": {"substrate": "CCCCCCCCCCCCC/C=C/[C@@H](O)[C@@H](N)CO", "experiment": "as §1"}, "[4]": {"substrate": "CC(=O)N[C@H]1[C@H](O[C@@H]2[C@H](O[C@]3(C(=O)O)C[C@H](O)[C@@H](NC(C)=O)[C@H]([C@@H](O)[C@@H](O)CO)O3)[C@@H](O)[C@H](O[C@H]3[C@H](O)[C@@H](O)[C@@H](F)O[C@@H]3CO)O[C@@H]2CO)O[C@H](CO)[C@H](O)[C@@H]1O[C@@H]1O[C@H](CO)[C@H](O)[C@H](O)[C@H]1O", "experiment": "(§2) Ratio of Kcat to Km of Activity of Rhodococcus sp. M777 Endoglycoceramidase 2 T257I T416A mutant"}, "[5]": {"substrate": "CCCCCCCCCCCCC/C=C/[C@@H](O)[C@@H](N)CO", "experiment": "as §2"}, "[6]": {"substrate": "CC(=O)N[C@H]1[C@H](O[C@@H]2[C@H](O[C@]3(C(=O)O)C[C@H](O)[C@@H](NC(C)=O)[C@H]([C@@H](O)[C@@H](O)CO)O3)[C@@H](O)[C@H](O[C@H]3[C@H](O)[C@@H](O)[C@@H](F)O[C@@H]3CO)O[C@@H]2CO)O[C@H](CO)[C@H](O)[C@@H]1O[C@@H]1O[C@H](CO)[C@H](O)[C@H](O)[C@H]1O", "experiment": "(§3) Activity of Rhodococcus sp. M777 Endoglycoceramidase 2 A153T D314Y R177H mutant"}, "[7]": {"substrate": "CCCCCCCCCCCCC/C=C/[C@@H](O)[C@@H](N)CO", "experiment": "as §3"}, "[8]": {"substrate": "CC(=O)N[C@H]1[C@H](O[C@@H]2[C@H](O[C@]3(C(=O)O)C[C@H](O)[C@@H](NC(C)=O)[C@H]([C@@H](O)[C@@H](O)CO)O3)[C@@H](O)[C@H](O[C@H]3[C@H](O)[C@@H](O)[C@@H](F)O[C@@H]3CO)O[C@@H]2CO)O[C@H](CO)[C@H](O)[C@@H]1O[C@@H]1O[C@H](CO)[C@H](O)[C@H](O)[C@H]1O", "experiment": "(§4) Ratio of Kcat to Km of Activity of Rhodococcus sp. M777 Endoglycoceramidase 2 A153T D314Y R177H mutant"}, "[9]": {"substrate": "CCCCCCCCCCCCC/C=C/[C@@H](O)[C@@H](N)CO", "experiment": "as §4"}, "[10]": {"substrate": "CC(=O)N[C@H]1[C@H](O[C@@H]2[C@H](O[C@]3(C(=O)O)C[C@H](O)[C@@H](NC(C)=O)[C@H]([C@@H](O)[C@@H](O)CO)O3)[C@@H](O)[C@H](O[C@H]3[C@H](O)[C@@H](O)[C@@H](F)O[C@@H]3CO)O[C@@H]2CO)O[C@H](CO)[C@H](O)[C@@H]1O[C@@H]1O[C@H](CO)[C@H](O)[C@H](O)[C@H]1O", "experiment": "(§5) Activity of Rhodococcus sp. M777 Endoglycoceramidase 2 G370E mutant"}, "[11]": {"substrate": "CCCCCCCCCCCCC/C=C/[C@@H](O)[C@@H](N)CO", "experiment": "as §5"}, "[12]": {"substrate": "CC(=O)N[C@H]1[C@H](O[C@@H]2[C@H](O[C@]3(C(=O)O)C[C@H](O)[C@@H](NC(C)=O)[C@H]([C@@H](O)[C@@H](O)CO)O3)[C@@H](O)[C@H](O[C@H]3[C@H](O)[C@@H](O)[C@@H](F)O[C@@H]3CO)O[C@@H]2CO)O[C@H](CO)[C@H](O)[C@@H]1O[C@@H]1O[C@H](CO)[C@H](O)[C@H](O)[C@H]1O", "experiment": "(§6) Ratio of Kcat to Km of Activity of Rhodococcus sp. M777 Endoglycoceramidase 2 G370E mutant"}, "[13]": {"substrate": "CCCCCCCCCCCCC/C=C/[C@@H](O)[C@@H](N)CO", "experiment": "as §6"}, "[14]": {"substrate": "CC(=O)N[C@H]1[C@H](O[C@@H]2[C@H](O[C@]3(C(=O)O)C[C@H](O)[C@@H](NC(C)=O)[C@H]([C@@H](O)[C@@H](O)CO)O3)[C@@H](O)[C@H](O[C@H]3[C@H](O)[C@@H](O)[C@@H](F)O[C@@H]3CO)O[C@@H]2CO)O[C@H](CO)[C@H](O)[C@@H]1O[C@@H]1O[C@H](CO)[C@H](O)[C@H](O)[C@H]1O", "experiment": "(§7) Activity of Rhodococcus sp. M777 Endoglycoceramidase 2 D314Y mutant"}, "[15]": {"substrate": "CCCCCCCCCCCCC/C=C/[C@@H](O)[C@@H](N)CO", "experiment": "as §7"}, "[16]": {"substrate": "CC(=O)N[C@H]1[C@H](O[C@@H]2[C@H](O[C@]3(C(=O)O)C[C@H](O)[C@@H](NC(C)=O)[C@H]([C@@H](O)[C@@H](O)CO)O3)[C@@H](O)[C@H](O[C@H]3[C@H](O)[C@@H](O)[C@@H](F)O[C@@H]3CO)O[C@@H]2CO)O[C@H](CO)[C@H](O)[C@@H]1O[C@@H]1O[C@H](CO)[C@H](O)[C@H](O)[C@H]1O", "experiment": "(§8) Ratio of Kcat to Km of Activity of Rhodococcus sp. M777 Endoglycoceramidase 2 D314Y mutant"}, "[17]": {"substrate": "CCCCCCCCCCCCC/C=C/[C@@H](O)[C@@H](N)CO", "experiment": "as §8"}}, "note": "Residue numbers refer to the chain shown, from its start. Names may count otherwise."}
{"molecule": "CCCCCCCCCCCCCC[C@@H](O)[C@@H](O)[C@@H](N)CO", "note": "[PHYTOSPHINGOSINE]", "values": [{"measurement": "Ki", "setting": "[1]", "result": 850, "unit": "µM"}]}
{"molecule": "B1", "values": [{"measurement": "Km", "setting": "[2]", "result": 370, "unit": "µM"}, {"measurement": "kcat", "setting": "[2]", "result": 0.11, "unit": "s⁻¹"}, {"measurement": "Km", "setting": "[3]", "result": 870, "unit": "µM"}, {"measurement": "kcat", "setting": "[3]", "result": 0.18, "unit": "s⁻¹"}, {"measurement": "kcat/Km", "setting": "[4]", "result": 297, "unit": "M⁻¹ s⁻¹"}, {"measurement": "kcat/Km", "setting": "[5]", "result": 206, "unit": "M⁻¹ s⁻¹"}]}
{"molecule": "B2", "values": [{"measurement": "Km", "setting": "[6]", "result": 800, "unit": "µM"}, {"measurement": "kcat", "setting": "[6]", "result": 0.28, "unit": "s⁻¹"}, {"measurement": "Km", "setting": "[7]", "result": 490, "unit": "µM"}, {"measurement": "kcat", "setting": "[7]", "result": 0.24, "unit": "s⁻¹"}, {"measurement": "kcat/Km", "setting": "[8]", "result": 350, "unit": "M⁻¹ s⁻¹"}, {"measurement": "kcat/Km", "setting": "[9]", "result": 490, "unit": "M⁻¹ s⁻¹"}]}
{"molecule": "B3", "values": [{"measurement": "Km", "setting": "[10]", "result": 850, "unit": "µM"}, {"measurement": "kcat", "setting": "[10]", "result": 0.21, "unit": "s⁻¹"}, {"measurement": "Km", "setting": "[11]", "result": 670, "unit": "µM"}, {"measurement": "kcat", "setting": "[11]", "result": 0.28, "unit": "s⁻¹"}, {"measurement": "kcat/Km", "setting": "[12]", "result": 247, "unit": "M⁻¹ s⁻¹"}, {"measurement": "kcat/Km", "setting": "[13]", "result": 418, "unit": "M⁻¹ s⁻¹"}]}
{"molecule": "B4", "values": [{"measurement": "Km", "setting": "[14]", "result": 580, "unit": "µM"}, {"measurement": "kcat", "setting": "[14]", "result": 0.49, "unit": "s⁻¹"}, {"measurement": "Km", "setting": "[15]", "result": 1600, "unit": "µM"}, {"measurement": "kcat", "setting": "[15]", "result": 0.7, "unit": "s⁻¹"}, {"measurement": "kcat/Km", "setting": "[16]", "result": 845, "unit": "M⁻¹ s⁻¹"}, {"measurement": "kcat/Km", "setting": "[17]", "result": 443, "unit": "M⁻¹ s⁻¹"}]}
